Laboratory results from US20250304643A1 (BAINAN BIOTECH, published 2025).
*1 amine or outer side, *2 acyl side, *3 side chain or, on linkers, in order; H or OH if unused. Where no end group is shown, it is not given here. Side-chain parts run from the residue outwards. [ ]: non-standard residue; d: D form. The star is where a group is joined. γGlu = O=C(O)[C@H](CCC(=O)[*:2])N[*:1]; Palmitoyl = CCCCCCCCCCCCCCCC(=O)*; Decanoyl = CCCCCCCCCC(=O)*; Aib = CC(C)(N)C(=O)O

B1: Compound no. 10 (peptide)
peptide: H[Aib]DGTFK([γGlu-Palmitoyl])SDYSTILDNLAARDFINWLIQTKITK-OH
modifications: N-terminus assumed
SMILES: CCCCCCCCCCCCCCCC(=O)N[C@@H](CCC(=O)NCCCC[C@H](NC(=O)[C@H](Cc1ccccc1)NC(=O)[C@@H](NC(=O)CNC(=O)[C@H](CC(=O)O)NC(=O)C(C)(C)NC(=O)[C@@H](N)Cc1c[nH]cn1)[C@@H](C)O)C(=O)N[C@@H](CO)C(=O)N[C@@H](CC(=O)O)C(=O)N[C@@H](Cc1ccc(O)cc1)C(=O)N[C@@H](CO)C(=O)N[C@H](C(=O)N[C@H](C(=O)N[C@@H](CC(C)C)C(=O)N[C@@H](CC(=O)O)C(=O)N[C@@H](CC(N)=O)C(=O)N[C@@H](CC(C)C)C(=O)N[C@@H](C)C(=O)N[C@@H](C)C(=O)N[C@@H](CCCNC(=N)N)C(=O)N[C@@H](CC(=O)O)C(=O)N[C@@H](Cc1ccccc1)C(=O)N[C@H](C(=O)N[C@@H](CC(N)=O)C(=O)N[C@@H](Cc1c[nH]c2ccccc12)C(=O)N[C@@H](CC(C)C)C(=O)N[C@H](C(=O)N[C@@H](CCC(N)=O)C(=O)N[C@H](C(=O)N[C@@H](CCCCN)C(=O)N[C@H](C(=O)N[C@H](C(=O)N[C@@H](CCCCN)C(=O)O)[C@@H](C)O)[C@@H](C)CC)[C@@H](C)O)[C@@H](C)CC)[C@@H](C)CC)[C@@H](C)CC)[C@@H](C)O)C(=O)O
B2: Compound no. 7 (peptide)
peptide: Palmitoyl-H[Aib]DGTFISDYSTILDNLAARDFIEWLIQTKITK-OH
SMILES: CCCCCCCCCCCCCCCC(=O)N[C@@H](Cc1c[nH]cn1)C(=O)NC(C)(C)C(=O)N[C@@H](CC(=O)O)C(=O)NCC(=O)N[C@H](C(=O)N[C@@H](Cc1ccccc1)C(=O)N[C@H](C(=O)N[C@@H](CO)C(=O)N[C@@H](CC(=O)O)C(=O)N[C@@H](Cc1ccc(O)cc1)C(=O)N[C@@H](CO)C(=O)N[C@H](C(=O)N[C@H](C(=O)N[C@@H](CC(C)C)C(=O)N[C@@H](CC(=O)O)C(=O)N[C@@H](CC(N)=O)C(=O)N[C@@H](CC(C)C)C(=O)N[C@@H](C)C(=O)N[C@@H](C)C(=O)N[C@@H](CCCNC(=N)N)C(=O)N[C@@H](CC(=O)O)C(=O)N[C@@H](Cc1ccccc1)C(=O)N[C@H](C(=O)N[C@@H](CCC(=O)O)C(=O)N[C@@H](Cc1c[nH]c2ccccc12)C(=O)N[C@@H](CC(C)C)C(=O)N[C@H](C(=O)N[C@@H](CCC(N)=O)C(=O)N[C@H](C(=O)N[C@@H](CCCCN)C(=O)N[C@H](C(=O)N[C@H](C(=O)N[C@@H](CCCCN)C(=O)O)[C@@H](C)O)[C@@H](C)CC)[C@@H](C)O)[C@@H](C)CC)[C@@H](C)CC)[C@@H](C)CC)[C@@H](C)O)[C@@H](C)CC)[C@@H](C)O
B3: Compound no. 31 (peptide)
peptide: H[Aib]DGTFISDYK([γGlu-Decanoyl])TILDKLAARDFIEWLIATKITK-OH
modifications: N-terminus assumed
SMILES: CCCCCCCCCC(=O)N[C@@H](CCC(=O)NCCCC[C@H](NC(=O)[C@H](Cc1ccc(O)cc1)NC(=O)[C@H](CC(=O)O)NC(=O)[C@H](CO)NC(=O)[C@@H](NC(=O)[C@H](Cc1ccccc1)NC(=O)[C@@H](NC(=O)CNC(=O)[C@H](CC(=O)O)NC(=O)C(C)(C)NC(=O)[C@@H](N)Cc1c[nH]cn1)[C@@H](C)O)[C@@H](C)CC)C(=O)N[C@H](C(=O)N[C@H](C(=O)N[C@@H](CC(C)C)C(=O)N[C@@H](CC(=O)O)C(=O)N[C@@H](CCCCN)C(=O)N[C@@H](CC(C)C)C(=O)N[C@@H](C)C(=O)N[C@@H](C)C(=O)N[C@@H](CCCNC(=N)N)C(=O)N[C@@H](CC(=O)O)C(=O)N[C@@H](Cc1ccccc1)C(=O)N[C@H](C(=O)N[C@@H](CCC(=O)O)C(=O)N[C@@H](Cc1c[nH]c2ccccc12)C(=O)N[C@@H](CC(C)C)C(=O)N[C@H](C(=O)N[C@@H](C)C(=O)N[C@H](C(=O)N[C@@H](CCCCN)C(=O)N[C@H](C(=O)N[C@H](C(=O)N[C@@H](CCCCN)C(=O)O)[C@@H](C)O)[C@@H](C)CC)[C@@H](C)O)[C@@H](C)CC)[C@@H](C)CC)[C@@H](C)CC)[C@@H](C)O)C(=O)O
B4: Compound no. 44 (peptide)
peptide: Decanoyl-H[Aib]DGTFISDYST[Aib]LDNLAARDFINWLIQTKITK-OH
SMILES: CCCCCCCCCC(=O)N[C@@H](Cc1c[nH]cn1)C(=O)NC(C)(C)C(=O)N[C@@H](CC(=O)O)C(=O)NCC(=O)N[C@H](C(=O)N[C@@H](Cc1ccccc1)C(=O)N[C@H](C(=O)N[C@@H](CO)C(=O)N[C@@H](CC(=O)O)C(=O)N[C@@H](Cc1ccc(O)cc1)C(=O)N[C@@H](CO)C(=O)N[C@H](C(=O)NC(C)(C)C(=O)N[C@@H](CC(C)C)C(=O)N[C@@H](CC(=O)O)C(=O)N[C@@H](CC(N)=O)C(=O)N[C@@H](CC(C)C)C(=O)N[C@@H](C)C(=O)N[C@@H](C)C(=O)N[C@@H](CCCNC(=N)N)C(=O)N[C@@H](CC(=O)O)C(=O)N[C@@H](Cc1ccccc1)C(=O)N[C@H](C(=O)N[C@@H](CC(N)=O)C(=O)N[C@@H](Cc1c[nH]c2ccccc12)C(=O)N[C@@H](CC(C)C)C(=O)N[C@H](C(=O)N[C@@H](CCC(N)=O)C(=O)N[C@H](C(=O)N[C@@H](CCCCN)C(=O)N[C@H](C(=O)N[C@H](C(=O)N[C@@H](CCCCN)C(=O)O)[C@@H](C)O)[C@@H](C)CC)[C@@H](C)O)[C@@H](C)CC)[C@@H](C)CC)[C@@H](C)O)[C@@H](C)CC)[C@@H](C)O
B5: Compound no. 6 (peptide)
peptide: Palmitoyl-H[Aib]DGTFISDYSTILD[Aib]LAARDFINWLIQTKITK-OH
SMILES: CCCCCCCCCCCCCCCC(=O)N[C@@H](Cc1c[nH]cn1)C(=O)NC(C)(C)C(=O)N[C@@H](CC(=O)O)C(=O)NCC(=O)N[C@H](C(=O)N[C@@H](Cc1ccccc1)C(=O)N[C@H](C(=O)N[C@@H](CO)C(=O)N[C@@H](CC(=O)O)C(=O)N[C@@H](Cc1ccc(O)cc1)C(=O)N[C@@H](CO)C(=O)N[C@H](C(=O)N[C@H](C(=O)N[C@@H](CC(C)C)C(=O)N[C@@H](CC(=O)O)C(=O)NC(C)(C)C(=O)N[C@@H](CC(C)C)C(=O)N[C@@H](C)C(=O)N[C@@H](C)C(=O)N[C@@H](CCCNC(=N)N)C(=O)N[C@@H](CC(=O)O)C(=O)N[C@@H](Cc1ccccc1)C(=O)N[C@H](C(=O)N[C@@H](CC(N)=O)C(=O)N[C@@H](Cc1c[nH]c2ccccc12)C(=O)N[C@@H](CC(C)C)C(=O)N[C@H](C(=O)N[C@@H](CCC(N)=O)C(=O)N[C@H](C(=O)N[C@@H](CCCCN)C(=O)N[C@H](C(=O)N[C@H](C(=O)N[C@@H](CCCCN)C(=O)O)[C@@H](C)O)[C@@H](C)CC)[C@@H](C)O)[C@@H](C)CC)[C@@H](C)CC)[C@@H](C)CC)[C@@H](C)O)[C@@H](C)CC)[C@@H](C)O
B6: Compound no. 8 (peptide)
peptide: Palmitoyl-H[Aib]DGTFISDYSTILDNLAARDFIEWLIQTKIT-OH
SMILES: CCCCCCCCCCCCCCCC(=O)N[C@@H](Cc1c[nH]cn1)C(=O)NC(C)(C)C(=O)N[C@@H](CC(=O)O)C(=O)NCC(=O)N[C@H](C(=O)N[C@@H](Cc1ccccc1)C(=O)N[C@H](C(=O)N[C@@H](CO)C(=O)N[C@@H](CC(=O)O)C(=O)N[C@@H](Cc1ccc(O)cc1)C(=O)N[C@@H](CO)C(=O)N[C@H](C(=O)N[C@H](C(=O)N[C@@H](CC(C)C)C(=O)N[C@@H](CC(=O)O)C(=O)N[C@@H](CC(N)=O)C(=O)N[C@@H](CC(C)C)C(=O)N[C@@H](C)C(=O)N[C@@H](C)C(=O)N[C@@H](CCCNC(=N)N)C(=O)N[C@@H](CC(=O)O)C(=O)N[C@@H](Cc1ccccc1)C(=O)N[C@H](C(=O)N[C@@H](CCC(=O)O)C(=O)N[C@@H](Cc1c[nH]c2ccccc12)C(=O)N[C@@H](CC(C)C)C(=O)N[C@H](C(=O)N[C@@H](CCC(N)=O)C(=O)N[C@H](C(=O)N[C@@H](CCCCN)C(=O)N[C@H](C(=O)N[C@H](C(=O)O)[C@@H](C)O)[C@@H](C)CC)[C@@H](C)O)[C@@H](C)CC)[C@@H](C)CC)[C@@H](C)CC)[C@@H](C)O)[C@@H](C)CC)[C@@H](C)O

Molecular target: T1, human GIPR (glucose-dependent insulinotropic polypeptide receptor) (human, UniProt P48546 22-466)
T1 sequence (looked up): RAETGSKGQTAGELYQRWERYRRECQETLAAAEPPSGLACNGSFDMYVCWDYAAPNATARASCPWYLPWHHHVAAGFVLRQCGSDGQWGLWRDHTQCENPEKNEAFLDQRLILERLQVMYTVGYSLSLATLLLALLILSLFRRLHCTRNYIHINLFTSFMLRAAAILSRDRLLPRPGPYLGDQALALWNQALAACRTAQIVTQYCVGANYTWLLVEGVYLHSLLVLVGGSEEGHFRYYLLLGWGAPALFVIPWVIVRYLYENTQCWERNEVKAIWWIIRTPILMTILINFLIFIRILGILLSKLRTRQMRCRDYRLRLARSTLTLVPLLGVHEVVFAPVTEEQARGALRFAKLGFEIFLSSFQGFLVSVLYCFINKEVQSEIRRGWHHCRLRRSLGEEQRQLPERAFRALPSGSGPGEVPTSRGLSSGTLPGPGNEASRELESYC
Test: cell-based or functional assay

Row | Binder | cAMP assay: EC50 (nM) GIPR [nM] | cAMP assay: Efficacy GIPR [%]
1 | H[Aib]DGTFISDYK([γGlu-Decanoyl])T[Aib]LDNLAARDFINWLIQTKITGNDWKHNITQ-OH [Compound no. 54] | 1.17 | 86
2 | HADGTFISDYSTILDKLAARDFINWLIQTKITK(C16 fatty acid) [Compound no. 58] | 1.41 | 74

Molecular target: human GLP-1R (GLP-1 receptor) (human, UniProt P43220 24-463)
Test: cell-based or functional assay

Row | Binder | cAMP assay: EC50 (nM) GLP-1R [nM] | cAMP assay: Efficacy GLP-1R [%] | cAMP assay: logEC50 GLP-1R
3 | B1 | 100 | 10 | 7
4 | B2 | 39.8 | 13 | 7.4
5 | B3 | 39.8 | 6 | 7.4
6 | H[Aib]DGTFISDYK([γGlu-Decanoyl])T[Aib]LDNLAARDFINWLIQTKITGNDWKHNITQ-OH [Compound no. 54] | 39.8 | 8 | 7.4
7 | B4 | – | 19 | –
8 | HXDGTFISDYKTILDNLAARDFINWLIQTKITK (Aib at 2; K(γGlu-C16) at 11; C-terminus -OH) [Compound no. 11] | – | 11 | –
9 | B5 | 39.8 | 34 | 7.4
10 | B6 | 10 | 19 | 8
